Consider 15 sequences from a protein production outcome set (Wang et al. 2014).

The data set can be described thus: label from the status in PepcDB records.
As for “MTTLVLRAKRWLYLLHRWMGVGLCLLFVLWFASGVVMMYVGYPNLTPAERLAHLPGLDAAQVRLGPAQALRAAGLEQAAEIRLAASRAGQPFYAVVPLAGGRTLRVDAASGQLAGRATPAQARASALAYFGARHAAREGGLVSEDAHTHTRTLDEHRPLYVFEMDDPARTRLYVSSSTGEVVRDAPRLERGWNYVGAWLHWLYPLRGAYWHDIVVWLSVLGVALTVSGTVVGLWRWRFARPYASGSRSPYRERFMRWHHIAGLLFAATTLTWIFSGLMSMNPWQVFGTRATQLDRAAYRGGPLQADNLPAGPAVAMPARKLVWTRVAGQTLLQVYGAAGAPALRTADGAAPRTLAPATLGVALGRLLPSAAPPRIEVLDGYDSYYYARAPHTMLGHVEKPLPVWRVVYDDPRGTWLHVDPRSGEILGSLDRPRRVSRWLFAFLHSWDWPPLLQRRPAWDAVLIVLSLGGLLLSGAGVVIGWRRVGRKLR”, the protein production entry is “failed”. Consider “MTDRDSLEPISRDELQARVAAGSVLVLDVRPAMEYAAGHLPGAVSIPLDELAERLDELPSGIDIVACCRGPYCVYAYDALELLRPNGFSARRLDGGFSEWLAADLPVVRTLEHHHHHH”, for which the protein production result is “not failed”. Take “MIDEKFLIESNELVESSKIVMVGTNGENGYPNIKAMMRLKHDGLKKFWLSTNTSTRMVERLKKNNKICLYFVDDNKFAGLMLVGTIEILHDRASKEMLWTDGCEIYYPLGIDDPDYTALCFTAEWGNYYRHLKNITFKIDEIYNY”: the protein production entry was “not failed”. Consider “MEDKRISEKESLELIACMIRETQDNTARYAAYPLLIWGYTTVAISLVVWYFYLQTGVWQINFLWFALPVIAGPLTIFFNRKDKNKGAKNYIDRVTGQIWAVFGVVGFCLSCMAFVVRIDILFVISLLMGMGATLTGLVCKYKPLSIAGMTGIALSFSMLFIHGSGVYLVFAAIFIVMMIVPGHIMNKQMKKQCLKN”, for which the protein production result is “failed”. In the case of “MIKLNRDQKLTYKFLIIPIALLILSFNPYTESLEFSLPAVYMASHYAVYFSGLYIGYKYFKGGYISLILGLIPAVLWHSPYFFSLGAAMLDYRILLEITLLFGGVLLGSSINSMRLQIKITLLALWMLGDSILAILFITSTPLYSNLAYPFSPYTPSSLPLAGILMFVIMNVFLIYVISKFMKSIIG” it was “failed”. In the case of “MSLYNYVLFDLDGTLTDSAEGITKSVKYSLNKFDIQVEDLSSLNKFVGPPLKTSFMEYYNFDEETATVAIDYYRDYFKAKGMFENKVYDGIEALLSSLKDYGFHLVVATSKPTVFSKQILEHFKLAFYFDAIVGSSLDGKLSTKEDVIRYAMESLNIKSDDAIMIGDREYDVIGALKNNLPSIGVTYGFGSYEELKNAGANYIVNSVDELHKKILELREGHHHHHH” it was “not failed”; in that of “MKTPTSRPVVLCLSGHDPSGGAGLQADIEALLAQGCHAAPAVTALTVQDTVNVSDFRVLDREWVLAQANAVLADLPVAAVKLGMLGSLEMVDTVAEILAAHPHLPVVCDPVLRAGGGGALGKGDVGFAMRERLLPRATIATPNLPEARLLADLPEGSADQCAERLLEHCEHLLITGGHGDESEVHNRLYSRDGSRRTFTCQRLPGSYHGSGCTLASALAGRIALGEALHGAVQSALDYTWRTLRDAESPGHGQYVPRRLPTDFCH”, “failed”. Turning to “MSWLLVIAAGFLEVVWASGLKHADSFVDWLMIFVLIAVSFIMLIRSYRNIPMASAYTVFVGIGTAGTYVTGIFMGETFSGGQIFFLIVLLGGIIGMKMFTKENNAQSGGDE”, the protein production entry is listed as “failed”.

Regarding “MDKHHSKKAILKLTLITTSILLMHSNQVNAEEQELKNQEQSPVIANVAQQPSPSVTTNTVEKTSVTAASASNTAKEMGDTSVKNDKTEDELLEELSKNLDTSNLGADLEEEYPSKPETTNNKESNVVTNASTAIAQKVPSAYEEVKPESKSSLAVLDTSKITKLQAITQRGKGNVVAIIDTGFDINHDIFRLDSPKDDKHSFKTKTEFEELKAKHNITYGKWVNDKIVFAHNYANNTETVADIAAAMKDGYGSEAKNISHGTHVAGIFVGNSKRPAINGLLLEGAAPNAQVLLMRIPDKIDSDKFGEAYAKAITDAVNLGAKTINMSIGKTADSLIALNDKVKLALKLASEKGVAVVVAAGNEGAFGMDYSKPLSTNPDYGTVNSPAISEDTLSVASYESLKTISEVVETTIEGKLVKLPIVTSKPFDKGKAYDVVYANYGAKKDFEGKDFKGKIALIERGGGLDFMTKITHATNAGVVGIVIFNDQEKRGNFLIPYRELPVGIISKVDGERIKNTSSQLTFNQSFEVVDSQGGNRMLEQSSWGVTAEGAIKPDVTASGFEIYSSTYNNQYQTMSGTSMASPHVAGLMTMLQSHLAEKYKGMNLDSKKLLELSKNILMSSATALYSEEDKAFYSPRQQGAGVVDAEKAIQAQYYITGNDGKAKINLKRMGDKFDITVTIHKLVEGVKELYYQANVATEQVNKGKFALKPQALLDTNWQKVILRDKETQVRFTIDASQFSQKLKEQMANGYFLEGFVRFKEAKDSNQELMSIPFVGFNGDFANLQALETPIYKTLSKGSFYYKPNDTTHKDQLEYNESAPFESNNYTALLTQSASWGYVDYVKNGGELELAPESPKRIILGTFENKVEDKTIHLLERDAANNPYFAISPNKDGNRDEITPQATFLRNVKDISAQVLDQNGNVIWQSKVLPSYRKNFHNNPKQSDGHYRMDALQWSGLDKDGKVVADGFYTYRLRYTPVAEGANSQESDFKVQVSTKSPNLPSRAQFDETNRTLSLAMPKESSYVPTYRLQLVLSHVVKDEEYGDETSYHYFHIDQEGKVTLPKTVKIGESEVAVDPKALTLVVEDKAGNFATVKLSDLLNKAVVSEKENAIVISNSFKYFDNLKKEPMFISKKEKVVNKNLEEIILVKPQTTVTTQSLSKEITKSGNEKVLTSTNNNSSRVAKIISPKHNGDSVNHTLPSTSDRATNGLFVGTLALLSSLLLYLKPKKTKNNSK”, the protein production result was “failed”. The result for “MVVRSLSVVGLGPAGAGAAAAASRLGVKPVIYEAMEKPGLKPCGRGLPIVDGGLPVSIPRDSILRRIRGARMYVDGEFLFEMKGFLDGYIVDKTVMLEAIAVEAGGEIHYRAKYKPGSSTVRLPGGGEARVEQGVFAGGHPYYGGAKIAAVQWIMKTGPRSDPVGDMLEIHFDTELLGYAYIFPKEEGFIEVGIGGFATPRELRERLESFIHKRSDLRELERVKLEGARIAIGGLDLGVVDGLVKAGEAAGFVLPLTGEGIRPSLISGYEAASALIEGGSPLEKLRSLPIARAVSMQKRILDLVAGMSVEERRSLLKSLTPRAHAEIALGMFRKHILLKELARSPRALSLLGLVTRLI” reads “failed”; that for “MDYLSQEEDLQFFDANEEMMALNPSGFGFDVWNDSPGSVVERRRKFLEWMGVEEEGRVETKDSVSGSSVESCFDGGEENSVEAEERSGECSSSSSEVSLSGSSVEVSEELSLRVDRNVGGCDVTRRQSSSMASCSSSRYCQVKETEKQRNIAGLVTSFKKGWLSRLRSMGCTADTNIESGGRMRASSGYGDVISRVKVKHCKKQAKELSALYQSQDIKAHDGAILAMKFSNDGKFLASSGEDGIVRVWKVVEDKKSRLRRDCLNEIDPSCMYFEVNDLSQLKPVLVNEEKPKKTTESFRKTSDSACVVFPPKVFRIMEKPLYEFRGHTGEVLDISWSKDNYLLSASMDKTVRLWKVGSNDCLGVFAHNSYVTSVQFNPVNENYFMSGSIDGKVRIWNISGCSVVDWADLKDIISAVCYRPDGQGGIIGSLNGSCRFFNMSGEFLELDSQIHLHNKKKSSNKRITGFQFLPQEPTKVLVVSADSKVRILQGNNVVRKYKGVCKTRSLTSASLTSDGKHIVSACEDSNVYIWSNDEESETKKIRSFERFSANASVAATWCGFSDHNTTLPFSSPSCLSHNEGFVPGSISKGSATWPEENLPANPLSTSAMNASHYKFLKSSYQRASSSLSWGMVIVTGGWDGQIRTFQNYGLPVTT”, “failed”; that for “MWRSCLRLRDGGRRLLNRPAGGPSASMSPGPTIPSPARAYAPPTERKRFYQNVSITQGEGGFEINLDHRKLKTPQAKLFTVPSEALAIAVATEWDSQQDTIKYYTMHLTTLCNTSLDNPTQRNKDQLIRAAVKFLDTDTICYRVEEPETLVELQRNEWDPIIEWAEKRYGVEISSSTSIMGPSIPAKTREVLVSHLASYNTWALQGIEFVAAQLKSMVLTLGLIDLRLTVEQAVLLSRLEEEYQIQKWGNIEWAHDYELQELRARTAAGTLFIHLCSESTTVKHKLLKE”, “failed”. “MNRRGGQTAFAAIARNERAIAAFIPYSSHLTDTTLITHGADLVRTWRVQGIAFESAEPELVSQRHEQLNGLWRAISCEQVALWIHCIRRKTQAGLDARYENPFCRALDASYNARLNARQAMTNEFYLTLVYRPGHAALGKRAHHGQAEVRRQLLAHVRRMDEIGSLIETTLRSHGENHEQAITVLGCETDSAGRRYSRTLTLLEFLLTGHWQPVRVPAGPVDAYLGSSRILAGAEMMELRAPTCRRYAQFIDFKEYGTHTEPGMLNALLYEDYEYVITHSFSAVGKRQALAYLQRQRAQLANVQDAAYSQIDDLAHAEDALVNGDFVIGEYHFSMMILGADPRQLRRDVSSAMTRIQERGFLATPVTLALDAAFYAQLPANWAYRSRKAMLTSRNFAGLCSFHNFYGGKRDGNPWGPALSLLSTPSGQPFYFNFHHSGLDEDCRGQMMLGNTRIIGQSGSGKTVLLNFLLCQLQKFRSADADGLTTIFFDKDRGAEICIRALDGQYLRIRDGEPTGFNPLQLPCTDRNVMFLDSLLAMLARAHDSPLTSAQHATLATAVRTVLRMPASLRRMSTLLQNITQATSEQRELVRRLGRWCRDDGAGGTGMLWWVFDNPNDCLDFSRPGNYGIDGTAFLDNAETRTPISMYLLHRMNEAMDGRRFVYLMDEAWKWIDDPAFAEFAGDQQLTIRKKNGLGVFSTQMPSSLLGARVAASLVQQCATEIYLPNPRADRAEYLDGFKCTETEYQLIRSMAEDSHLFLVKQGRQAVVAQLDLSGMDDELAILSGNARNLRCFEQALALTRERDPNDWIAVFHRLRREASAGLR”: the protein production entry is listed as “failed”.

In the case of “MSSTSKIHAKITGPIVMIGFGSIGKGALPLIERHFEYDKKRFVIIDPHEDGELAKKHGVRFIKQAVTKDNYRELLVPLLTEGGGQGFCVNLSVDTGSVDLMTMCREIGALYIDTVVEPWLGFYFDKNAGPEKRSNYALRETLLAAKAKNPGGTTAVSTCGANPGMVSWFVKQALLDIARDTGLEFNEPKSREGWGQLAQKLGVKGIHIAERDTQRAKTPKPMNVFVNTWSVEGFVSEGLQPAELGWGTHEKWIPDNGRKHTEGCQAAIYLLQPGANTRVRTWCPTPGPQYGFLVTHNESISIADYFTVRDGQNVVYRPTCHYAYHPANDAVLSLHEMFGAEGKMQPKWHILDENEIVDGIDELGVLVYGHAKNAYWYGSQLSIEETREICPYQNATGMQVSSAVLAGMVWALENPEAGIVEADEMDFRRCLEVQKPYLGPVKGYYTDWTPLTDRPGLFPEDIDSSDPWQFKNVLVR”, the protein production entry is on record as “failed”. As for “MCRVGLRAMVQERPVRVERRLSAILAADVAGYSRLMHNDEEATHAKLSALLTEAVQPAIAEHGGHIVKNTGDGFLAEFPSAVEAVRAAMQFQTSIHELTIGDVEDRRIAFRVGINIGDVIVEPHDIFGDGVNIAARLEGVAEPGGICISSSAYDQVQGKVGVEFGDLGEQNLKNIARPVRVYRMRPCNAATRPQASLLHRDTPQIGWFPNMFGGFPIRLWPALRARRARMALVIALLFVLSGGVAYWYMHQGEPQPLNHRLSIVVLPFTNLSNASEQEYFAEGITDDLSADLSRIEDSFVIAPSTARAYKNVDPKRVGRELGVRYILDGSLRRTDSLVRINARLIDARTGAEIWSERVDGDWSKSMQLQDIITGRLARRLDLELTNQESRDAEVMRPNNPDAVDLTMRGWAVLNQPYSREQLSQSRALFERALQIDPGFPKALVGLAETLAMEVNYRWTDAPADQLRRAESAVGQVLSKFPSDAMAHFVRGEIQRASGRNVEAAVGEYEAAIAINPSLAPAHGALGAAKIRVGRSAEAFAPLQMAIQLSPRDPLLSTWYFYIGHAHSHLGQYEGAIDWCGRSIAVQPLWIAYADLAAAHALTGHEREAYAAVAELRRLRPSYTVTEWLQDGKGWSDNAVFLAEFQRIADGLRKAGLPE”, the protein production result is reported as “failed”.
